This is an account of results in patent publication US20170204402A1 (published 2017).

This assay concerns the target T1, ACM335-FKBP hybrid protein (from plasmid pCm-ACM335-FKBP) (Bordetella pertussis, UniProt P62942 2-108).
T1 construct: also called ACM-FKBP
Nature of the assay: HSACH in vivo complementation in E. coli DHM1 (data not shown).

B1: 3K1K-CaM fusion (VHH)
VHH: QVQLVESGGALVQPGGSLRLSCAASGFPVNRYSMRWYRQAPGKEREWVAGMSSAGDRSSYEDSVKGRFTISRDDARNTVYLQMNSLKPEDTAVYYCNVNVGFEYWGQGTQVTVSS
With B1, the binding result is recorded as “no binding”.
